The Kd is the equilibrium constant for the complex coming apart. Read a low Kd as tighter binding.

Holding throughout (assay): other fluorescence titration
Experiment [1] has as its target FlAsH-labeled wild-type collybistin (CB) FRET sensor F1DA (rat).
In experiment [2] the target is FlAsH-labeled single-mutant (E262A) open-state collybistin FRET sensor F1smDA (rat).
For experiment [3], the target named is FlAsH-labeled collybistin FRET sensor F73DA (rat).
Experiment [4] concerns the target FlAsH-labeled double-mutant (W24A/E262A) open-state collybistin FRET sensor F1dmDA (rat).
In experiment [5] the target is FlAsH-labeled collybistin FRET sensor F28DA (rat).
For experiment [6], the target named is FlAsH-labeled collybistin FRET sensor F99DA (rat).

In experiment [1], “free SH3 domain of collybistin (domain or fragment)” had a Kd of 373 µM and a species-weighted average fluorescence lifetime of CFP in the sensor with ligand of 1.44 ns.
Regarding “full-length gephyrin (GephFL) (from UniProt Q03555 1-768) (natural protein)”, the Kd in experiment [1] stood at 4.5 µM; in experiment [2], 47 µM; in experiment [4] it was 43 µM. Besides, the species-weighted average fluorescence lifetime of CFP in the sensor with ligand stood at 1.56 ns in experiment [1]; 0.62 ns in experiment [2]; 1.03 ns in experiment [3]; 0.64 ns in experiment [4]; 1.4 ns in experiment [5]; 1.2 ns in experiment [6].
Turning to “isolated gephyrin E domain (GephE) (domain or fragment)”, in experiment [1], the Kd came out at 6.3 µM and the species-weighted average fluorescence lifetime of CFP in the sensor with ligand was determined as 1.36 ns.
On to “intracellular cytosolic domain of neuroligin 2 (NL2icd) (from UniProt Q62888 700-836) (domain or fragment)”, for which, in experiment [1], the species-weighted average fluorescence lifetime of CFP in the sensor with ligand amounted to 1.37 ns.
“gephyrin linker followed by the E domain (GephLE) (domain or fragment)”: in experiment [1], the Kd worked out at 6.4 µM and the species-weighted average fluorescence lifetime of CFP in the sensor with ligand came out at 1.54 ns.

These data come from article PMC9680708.
